# Experimental data from PMC9896449.
# Key:
# [1] = molecular target: ShAb01H02K (knob-in-hole heterodimer of ShAb01-Fc and ShAb02-Fc) (nurse shark (Ginglymostoma cirratum)); assay: BLI
# [2] = molecular target: BiShAb0201 (ShAb02 VNAR - (GGGGS)5 - ShAb01 VNAR - human IgG1 Fc) (nurse shark (Ginglymostoma cirratum)); assay: BLI
Substance,Kd [1] [nM],koff [1] [s⁻¹],kon [1] [M⁻¹ s⁻¹],Kd [2] [nM],koff [2] [s⁻¹],kon [2] [M⁻¹ s⁻¹]
"SARS-CoV-2 RBD B.1.1.7, Alpha (N501Y) (from UniProt P0DTC2 331-527) (domain or fragment)",1.5,0.000513,341000,1.8,0.00037,207000
"SARS-CoV-2 RBD B.1.351, Beta (K417N, E484K, N501Y) (from UniProt P0DTC2 331-527) (domain or fragment)",1.8,0.000538,294000,2.1,0.000436,206000
"SARS-CoV-2 RBD B.1.427/429, Epsilon (L452R) (from UniProt P0DTC2 331-527) (domain or fragment)",0.08,1.21e-05,156000,1.2,0.000133,109000
"SARS-CoV-2 RBD B.1.525, Eta, Iota (E484K) (from UniProt P0DTC2 331-527) (domain or fragment)",1.6,0.000511,310000,2,0.000415,210000
"SARS-CoV-2 RBD B.1.617, Kappa (L452R, E484Q) (from UniProt P0DTC2 331-527) (domain or fragment)",2.2,0.000326,151000,4.4,0.000238,53600
"SARS-CoV-2 RBD B.1.617.2, Delta (L452R, T478K) (from UniProt P0DTC2 331-527) (domain or fragment)",< 0.001,< 1e-07,90000,0.72,4.1e-05,57000
"SARS-CoV-2 RBD E484K, N501Y (from UniProt P0DTC2 331-527) (domain or fragment)",1.9,0.000512,277000,2.3,0.000412,177000
SARS-CoV-2 RBD K417N (from UniProt P0DTC2 331-527) (domain or fragment),1.3,0.000457,353000,1.7,0.000352,211000
"SARS-CoV-2 RBD P.1, Gamma (K417T, E484K, N501Y) (from UniProt P0DTC2 331-527) (domain or fragment)",4.2,0.000305,73500,6.5,0.000508,78000
